Changes are numbered by the printed parent chain. Names may count otherwise. “Also recorded” adds a separate entry of the source. One block for each molecule: values may come before it.
How the values were obtained:
[1] = Selectivity for fucose linkage; format: binding
IgG0 ligand [2] = experiment: Competition (indirect) ELISA: unbiotinylated AAL proteins against biotinylated AAL binding to IgG0 in serum; set-up: species or system human; settings: for decrease in signal output versus control: compared with commercial (Vector) AAL
Protocol: 96 well plates are coated with sodium periodate (NaIO4) treated mouse IgG (1.0 ug/well). 3 ul of serum from a patient with cirrhosis (Gish 342) or serum from normal donors (Sigma) were diluted to 100 ul and added to antibody coated wells. Plates are washed and then incubated at room temperature for 30 minutes/shaking with equivalent amounts of either unbiotinylated commercial (Vector) AAL, unbiotinylated recombinant 10×-His tagged (rAAL 10×), or unbiotinylated recombinant 10×-His tagged mutant AAL (rAAL N129Q, N224Q)). Equivalent amounts of biotinylated AAL was then added to each well and incubated for 1 hour at room temperature/shaking. Plates are washed and incubated with streptavidin-800-IRDye as previously described. Plates are washed and fluorescence quantified using a LiCor Odyssey machine. Control samples measured biotinylated AAL binding to IgG0 in the absence of unbiotinylated AAL.
Competition experiments provide an indirect ELISA for measuring the ability of unbiotinylated commercial (Vector) and unbiotinylated rAAL proteins to interfere with binding of biotinylated AAL to the IgG0 ligand. It is a qualitative indication of the relative affinities of the untagged AAL proteins for the IgG0 ligand.

IgG0 ligand [3] = experiment: IgG0 ligand binding to AAL proteins coated on nickel NTA plates, fluorescence readout; set-up: species or system human; settings: FIG. 2
Protocol: Equal amounts of recombinant AAL (wild type or mutants) containing 10× Histidine tags were coated to nickel NT A plates and incubated with increasing amounts of IgG0 ligand (X axis). Un tagged, commercially purchased AAL (AAL-V) was also coated to nickel NT A plates or on high affinity binding ELISA plates (AAL-Vc) and incubated with increasing amounts of IgG0 ligand. Plates were washed and incubated with fluorescently tagged anti-human lgG, washed and read in a fluorescence detector. Increasing relative fluorescence indicates higher binding affinity.

[4] = Surface plasmon resonance, tryptophan fluorescence and enzyme linked lectin assays; format: binding; settings: rAAL from bacteria, isolated by nickel affinity chromatography
Protocol: Quantitative equilibrium binding of mutant and wild-type AAL for the selection ligand and other L-fucopyranosyl oligosaccharides are determined by BIAcore analysis and enzyme linked lectin assays (Oiausson et al).

[5] = multivalent; compared to other lectins; cited from earlier work
[6] = serum from a cirrhotic patient (Gish 342), FIG. 3

B1: N224Q: mutant Aleuria aurantia lectin with N224 changed to glutamine (protein, UniProt P18891 2-313, looked up, variant N224Q)
Fucose-specific lectin: PTEFLYTSKIAAISWAATGGRQQRVYFQDLNGKIREAQRGGDNPWTGGSSQNVIGEAKLFSPLAAVTWKSAQGIQIRVYCVNKDNILSEFVYDGSKWITGQLGSVGVKVGSNSKLAALQWGGSESAPPNIRVYYQKSNGSGSSIHEYVWSGKWTAGASFGSTVPGTGIGATAIGPGRLRIYYQATDNKIREHCWDSNSWYVGGFSASASAGVSIAAISWGSTPQIRVYWQKGREELYEAAYGGSWNTPGQIKDASRPTPSLPDTFIAANSSGNIDISVFFQASGVSLQQWQWISGKGWSIGAVVPTGTPAGW
modifications: 10xHis tag
notes: mutant Aleuria aurantia lectin with N224 changed to glutamine
selectivity for the 1-6 linkage against outerarm linkages [1]: more selective for the 1-6 linkage than outerarm

B2: rAAL 10×: unbiotinylated recombinant 10×-His tagged wild-type AAL (protein, UniProt P18891 2-313, looked up)
Fucose-specific lectin: B1 Fucose-specific lectin with Q224N
modifications: 10xHis tag
notes: unbiotinylated recombinant 10×-His tagged wild-type AAL
decrease in signal output versus control (IgG0 ligand [2]; [6]): greater decreases in signal output versus control

B3: rAAL (N129Q, N224Q): recombinant 10×-His tagged mutant AAL with both N129Q and N224Q (protein, UniProt P18891 2-313, looked up, variant N129Q N224Q)
Fucose-specific lectin: B1 Fucose-specific lectin with N129Q
modifications: 10xHis tag
notes: recombinant 10×-His tagged mutant AAL with both N129Q and N224Q
decrease in signal output versus control (IgG0 ligand [2]; [6]): greater decreases in signal output versus control

Limit of Detection (IgG0 ligand [3]; IgG0 ligand): 10 ng/mL
improvement of the Limit of Detection (IgG0 ligand [3]; IgG0 ligand): 10-100 fold
signal to noise ratio (IgG0 ligand [3]; increasing IgG0 ligand): highest signal to noise ratio
B4: AAL M1(N129Q): recombinant 10× His-tagged mutant Aleuria aurantia lectin with N129 changed to glutamine (protein, UniProt P18891 2-313, looked up, variant N129Q)
Fucose-specific lectin: B1 Fucose-specific lectin with N129Q, Q224N
modifications: 10xHis tag
notes: recombinant 10× His-tagged mutant Aleuria aurantia lectin with N129 changed to glutamine

signal output (IgG0 ligand [2]; serum from a cirrhotic patient (Gish 342), control ~35, FIG. 3): ~20
B5: commercial (Vector) AAL: untagged, commercially purchased AAL (Vector), eluted with L-fucose in manufacture (protein, UniProt P18891 2-313, looked up)
Fucose-specific lectin: B1 Fucose-specific lectin with Q224N

affinity for the IgG0 ligand compared with commercially available AAL (IgG0 ligand [2]; Example 1): higher affinity
affinity in cirrhotic patients compared with controls (IgG0 ligand [2]; serum samples, FIG. 3): significantly higher affinity
binding affinities for fucosylated oligosaccharides compared with commercially prepared AAL [4]: substantially higher binding affinities
B6: rAAL: recombinant AAL produced in and isolated from bacteria using nickel affinity chromatography (protein, UniProt P18891 2-313, looked up)
Fucose-specific lectin: B1 Fucose-specific lectin with Q224N
modifications: His tag

B7: AAL: 312 amino acid lectin with five binding sites for L-fucose or L-fucose-linked oligosaccharides (protein, UniProt P18891 2-313, looked up)
Fucose-specific lectin: B1 Fucose-specific lectin with Q224N
binding affinity for carbohydrate ligands [5]: micromolar; also recorded: micrormolar

— US20210041458A1, “Lectin Assay For Assessing Glycoforms As An Early Marker In Disease” (Baruch S. Blumberg Institute, priority 2009, published 2021)
